Stoichiometry N data for 2 substances are collected here from paper PMC8395244, “The Oxoglutarate Binding Site and Regulatory Mechanism Are Conserved in Ammonium Transporter Inhibitors GlnKs from Methanococcales” (International Journal of Molecular Sciences, 2021).

In experiment [1] the target is MtGlnK1 (GlnK isoform 1 from Methanothermococcus thermolithotrophicus), recombinant, N-terminally tagged (Methanothermococcus thermolithotrophicus). Description: crystal structure; sitting drop at 18 °C; crystallised with or without 2 mM ATP, 2 mM 2OG and 2 mM MgCl2; solved by molecular replacement with PDB 2J9D.
Experiment [2] addresses MtGlnK2 (GlnK isoform 2 from Methanothermococcus thermolithotrophicus), recombinant, N-terminally tagged (Methanothermococcus thermolithotrophicus). The experiment is described as above.

Turning to “MtGlnK1 (GlnK isoform 1 from Methanothermococcus thermolithotrophicus), recombinant, N-terminally tagged (natural protein)”, the stoichiometry N (in general, the number of molecules, sites or subunits per partner or assembly) in experiment [1] came to 3.

“MtGlnK2 (GlnK isoform 2 from Methanothermococcus thermolithotrophicus), recombinant, N-terminally tagged (natural protein)”: in experiment [2], the stoichiometry N stood at 3.
